{
  "source": "patent US20180311359A1",
  "about": "(TRACON PHARMACEUTICALS, published 2018)",
  "binders": {"B1": {"name": "TRC105 (an anti-CD105 antibody) (antibody, human IgG1, kappa, V domains shown)", "VH": "EVKLEESGGGLVQPGGSMKLSCAASGFTFSDAWMDWVRQSPEKGLEWVAEIRSKASNHATYYAESVKGRFTISRDDSKSSVYLQMNSLRAEDTGIYYCTRWRRFFDSWGQGTTLTVSS", "VL": "QIVLSQSPAILSASPGEKVTMTCRASSSVSYMHWYQQKPGSSPKPWIYATSNLASGVPVRFSGSGSGTSYSLTISRVEAEDAATYYCQQWSSNPLTFGAGTKLELKR", "notes": "each chain is built here as variable plus constant region; The same antibody was tested in different formulations and after different storage times; also called Lot FIN-0536"}},
  "key": {"[1]": {"biological_target": "T1, CD105 (endoglin) (UniProt P17813 26-586, limits assumed)", "T1 construct": "Soluble protein captured on the plate", "T1 sequence (looked up)": "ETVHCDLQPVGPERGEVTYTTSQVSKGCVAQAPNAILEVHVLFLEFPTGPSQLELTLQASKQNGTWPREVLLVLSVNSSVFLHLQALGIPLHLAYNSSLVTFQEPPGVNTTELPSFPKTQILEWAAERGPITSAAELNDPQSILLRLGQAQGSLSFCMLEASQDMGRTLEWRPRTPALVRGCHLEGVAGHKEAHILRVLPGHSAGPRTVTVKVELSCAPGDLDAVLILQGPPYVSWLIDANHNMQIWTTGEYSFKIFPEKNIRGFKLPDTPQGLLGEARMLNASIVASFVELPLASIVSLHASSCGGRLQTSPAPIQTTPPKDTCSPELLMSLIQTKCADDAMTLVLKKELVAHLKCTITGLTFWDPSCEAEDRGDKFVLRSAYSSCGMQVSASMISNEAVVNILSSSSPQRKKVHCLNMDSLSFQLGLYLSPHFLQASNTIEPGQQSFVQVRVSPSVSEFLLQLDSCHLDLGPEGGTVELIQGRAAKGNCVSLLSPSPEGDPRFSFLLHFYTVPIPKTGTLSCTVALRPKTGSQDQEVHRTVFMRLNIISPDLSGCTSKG", "assay": "CD105 binding ELISA; F04 (pH 5.5, 20 mM histidine, 240 mM trehalose, 50 mg/ml), 5 C, 6 months"}, "[2]": {"biological_target": "T1, CD105 (endoglin)", "assay": "CD105 binding ELISA; TRC105 4 mg/mL in 17 mM phosphate, 145 mM NaCl, pH 7.2 (Lot FIN-0536), 2-8 C, 9 months"}, "[3]": {"biological_target": "T1, CD105 (endoglin)", "assay": "CD105 binding ELISA; F02 (pH 5.5, 20 mM histidine, 240 mM sorbitol, 25 mg/ml), 5 C, 12 months"}, "[4]": {"biological_target": "T1, CD105 (endoglin)", "assay": "CD105 binding ELISA; TRC105 4 mg/mL in 17 mM phosphate, 145 mM NaCl, pH 7.2 (Lot FIN-0536), 2-8 C, 24 months"}, "[5]": {"biological_target": "T1, CD105 (endoglin)", "assay": "CD105 binding ELISA; F03 (pH 4.0, 20 mM acetate, 240 mM sorbitol, 25 mg/ml), 5 C, 12 months"}, "[6]": {"biological_target": "T1, CD105 (endoglin)", "assay": "CD105 binding ELISA; F01 (pH 5.5, 20 mM histidine, 240 mM trehalose, 25 mg/ml), 5 C, initial"}, "[7]": {"biological_target": "T1, CD105 (endoglin)", "assay": "CD105 binding ELISA; F05 (pH 4.0, 20 mM acetate, 240 mM trehalose, 50 mg/ml), 5 C, 12 months"}, "[8]": {"biological_target": "T1, CD105 (endoglin)", "assay": "CD105 binding ELISA; TRC105 4 mg/mL in 17 mM phosphate, 145 mM NaCl, pH 7.2 (Lot FIN-0536), 2-8 C, 36 months"}, "[9]": {"biological_target": "T1, CD105 (endoglin)", "assay": "CD105 binding ELISA; F07 (pH 4.0, 20 mM acetate, 240 mM trehalose, 100 mg/ml), 5 C, initial"}, "[10]": {"biological_target": "T1, CD105 (endoglin)", "assay": "CD105 binding ELISA; F04 (pH 5.5, 20 mM histidine, 240 mM trehalose, 50 mg/ml), 5 C, initial"}, "[11]": {"biological_target": "T1, CD105 (endoglin)", "assay": "CD105 binding ELISA; TRC105 4 mg/mL in 17 mM phosphate, 145 mM NaCl, pH 7.2 (Lot FIN-0536), 25 C/60% RH study, initial (same initial value as in Table 18)"}, "[12]": {"biological_target": "T1, CD105 (endoglin)", "assay": "CD105 binding ELISA; F06 (pH 5.5, 20 mM histidine, 240 mM trehalose, 100 mg/ml), 5 C, 6 months"}, "[13]": {"biological_target": "T1, CD105 (endoglin)", "assay": "CD105 binding ELISA; F02 (pH 5.5, 20 mM histidine, 240 mM sorbitol, 25 mg/ml), 5 C, 6 months"}, "[14]": {"biological_target": "T1, CD105 (endoglin)", "assay": "CD105 binding ELISA; TRC105 4 mg/mL in 17 mM phosphate, 145 mM NaCl, pH 7.2 (Lot FIN-0536), 2-8 C, 30 months"}, "[15]": {"biological_target": "T1, CD105 (endoglin)", "assay": "CD105 binding ELISA; TRC105 4 mg/mL in 17 mM phosphate, 145 mM NaCl, pH 7.2 (Lot FIN-0536), 2-8 C, initial"}, "[16]": {"biological_target": "T1, CD105 (endoglin)", "assay": "CD105 binding ELISA; F06 (pH 5.5, 20 mM histidine, 240 mM trehalose, 100 mg/ml), 5 C, initial"}, "[17]": {"biological_target": "T1, CD105 (endoglin)", "assay": "CD105 binding ELISA; F01 (pH 5.5, 20 mM histidine, 240 mM trehalose, 25 mg/ml), 5 C, 12 months"}, "[18]": {"biological_target": "T1, CD105 (endoglin)", "assay": "CD105 binding ELISA; TRC105 4 mg/mL in 17 mM phosphate, 145 mM NaCl, pH 7.2 (Lot FIN-0536), 2-8 C, 6 months"}, "[19]": {"biological_target": "T1, CD105 (endoglin)", "assay": "CD105 binding ELISA; F01 (pH 5.5, 20 mM histidine, 240 mM trehalose, 25 mg/ml), 5 C, 6 months"}, "[20]": {"biological_target": "T1, CD105 (endoglin)", "assay": "CD105 binding ELISA; TRC105 4 mg/mL in 17 mM phosphate, 145 mM NaCl, pH 7.2 (Lot FIN-0536), 2-8 C, 18 months"}, "[21]": {"biological_target": "T1, CD105 (endoglin)", "assay": "CD105 binding ELISA; F05 (pH 4.0, 20 mM acetate, 240 mM trehalose, 50 mg/ml), 5 C, initial"}, "[22]": {"biological_target": "T1, CD105 (endoglin)", "assay": "CD105 binding ELISA; F04 (pH 5.5, 20 mM histidine, 240 mM trehalose, 50 mg/ml), 5 C, 12 months"}, "[23]": {"biological_target": "T1, CD105 (endoglin)", "assay": "CD105 binding ELISA; F02 (pH 5.5, 20 mM histidine, 240 mM sorbitol, 25 mg/ml), 5 C, initial"}, "[24]": {"biological_target": "T1, CD105 (endoglin)", "assay": "CD105 binding ELISA; F06 (pH 5.5, 20 mM histidine, 240 mM trehalose, 100 mg/ml), 5 C, 12 months"}, "[25]": {"biological_target": "T1, CD105 (endoglin)", "assay": "CD105 binding ELISA; F03 (pH 4.0, 20 mM acetate, 240 mM sorbitol, 25 mg/ml), 5 C, initial"}, "[26]": {"biological_target": "T1, CD105 (endoglin)", "assay": "CD105 binding ELISA; TRC105 4 mg/mL in 17 mM phosphate, 145 mM NaCl, pH 7.2 (Lot FIN-0536), 25 C/60% RH, 1 month"}, "[27]": {"biological_target": "T1, CD105 (endoglin)", "assay": "CD105 binding ELISA; F07 (pH 4.0, 20 mM acetate, 240 mM trehalose, 100 mg/ml), 5 C, 12 months"}, "[28]": {"biological_target": "T1, CD105 (endoglin)", "assay": "CD105 binding ELISA; TRC105 4 mg/mL in 17 mM phosphate, 145 mM NaCl, pH 7.2 (Lot FIN-0536), 2-8 C, 12 months"}},
  "data": [
    {"binder": "B1", "values": [
      {"measurement": "Percent Relative CD105 Binding Potency", "setting": "[1]", "value": "97 % relative to reference standard"},
      {"measurement": "CD105 Binding by ELISA (binding activity relative to reference standard)", "setting": "[2]", "value": "104 % relative to reference standard"},
      {"measurement": "Percent Relative CD105 Binding Potency", "setting": "[3]", "value": "69 % relative to reference standard"},
      {"measurement": "CD105 Binding by ELISA (binding activity relative to reference standard)", "setting": "[4]", "value": "136 % relative to reference standard"},
      {"measurement": "Percent Relative CD105 Binding Potency", "setting": "[5]", "value": "77 % relative to reference standard"},
      {"measurement": "Percent Relative CD105 Binding Potency", "setting": "[6]", "value": "101 % relative to reference standard"},
      {"measurement": "Percent Relative CD105 Binding Potency", "setting": "[7]", "value": "96 % relative to reference standard"},
      {"measurement": "CD105 Binding by ELISA (binding activity relative to reference standard)", "setting": "[8]", "value": "105 % relative to reference standard"},
      {"measurement": "Percent Relative CD105 Binding Potency", "setting": "[9]", "value": "100 % relative to reference standard"},
      {"measurement": "Percent Relative CD105 Binding Potency", "setting": "[10]", "value": "123 % relative to reference standard"},
      {"measurement": "CD105 Binding by ELISA (binding activity relative to reference standard)", "setting": "[11]", "value": "88 % relative to reference standard"},
      {"measurement": "Percent Relative CD105 Binding Potency", "setting": "[12]", "value": "95 % relative to reference standard"},
      {"measurement": "Percent Relative CD105 Binding Potency", "setting": "[13]", "value": "90 % relative to reference standard"},
      {"measurement": "CD105 Binding by ELISA (binding activity relative to reference standard)", "setting": "[14]", "value": "88 % relative to reference standard"},
      {"measurement": "CD105 Binding by ELISA (binding activity relative to reference standard)", "setting": "[15]", "value": "88 % relative to reference standard"},
      {"measurement": "Percent Relative CD105 Binding Potency", "setting": "[16]", "value": "93 % relative to reference standard"},
      {"measurement": "Percent Relative CD105 Binding Potency", "setting": "[17]", "value": "68 % relative to reference standard"},
      {"measurement": "CD105 Binding by ELISA (binding activity relative to reference standard)", "setting": "[18]", "value": "110 % relative to reference standard"},
      {"measurement": "Percent Relative CD105 Binding Potency", "setting": "[19]", "value": "94 % relative to reference standard"},
      {"measurement": "CD105 Binding by ELISA (binding activity relative to reference standard)", "setting": "[20]", "value": "88 % relative to reference standard"},
      {"measurement": "Percent Relative CD105 Binding Potency", "setting": "[21]", "value": "179 % relative to reference standard"},
      {"measurement": "Percent Relative CD105 Binding Potency", "setting": "[22]", "value": "74 % relative to reference standard"},
      {"measurement": "Percent Relative CD105 Binding Potency", "setting": "[23]", "value": "90 % relative to reference standard"},
      {"measurement": "Percent Relative CD105 Binding Potency", "setting": "[24]", "value": "115 % relative to reference standard"},
      {"measurement": "Percent Relative CD105 Binding Potency", "setting": "[25]", "value": "124 % relative to reference standard"},
      {"measurement": "CD105 Binding by ELISA (binding activity relative to reference standard)", "setting": "[26]", "value": "91 % relative to reference standard"},
      {"measurement": "Percent Relative CD105 Binding Potency", "setting": "[27]", "value": "86 % relative to reference standard"},
      {"measurement": "CD105 Binding by ELISA (binding activity relative to reference standard)", "setting": "[28]", "value": "91 % relative to reference standard"}
    ]}
  ]
}
